Target: transmembrane tumor necrosis factor (tmTNF) knock-in mutant, on bone-marrow-derived macrophages of 3TG mice (TNFR1-/-, TNFR2-/-, tmTNF KI/KI) (mouse (endogenous in BMDMs)) (UniProt P06804)

Q: How did the internalization score of ETA-488 in 3TG BMDMs at 20 min, imaging cytometry turn out when “etanercept, a soluble form of TNFR2 coupled to human Fc domain (from UniProt P20333 23-257) (Fc fusion)” was run?
A: 0.73

Reference: publication PMC8050384
